Target: 3β-OH-Δ5-6-cholesterol-5β-reductase (5βChR) from Limosilactobacillus fermentum NKN51 (Limosilactobacillus fermentum NKN51)
Assay: SEC

3β-OH-Δ5-6-cholesterol-5β-reductase (5βChR) from Limosilactobacillus fermentum NKN51 (enzyme)
stoichiometry N: 2

Source: paper doi:10.1101/2024.06.04.597308
